Here are results for five molecules from patent US20030199671A1 (published 2003).

The target of experiment [1] is T1, human IgG3 (human, UniProt P01860-1 1-377).
T1 construct: Calbiochem; plasma IgG3 in anisotropy studies, myeloma-derived (cat. 400124) in batch/column studies; also called hIgG3
As to the kind of experiment: fluorescence anisotropy; PBS. The method, then:
(§1) Peptides were synthesized, fluorescein-labeled and HPLC purified as described above. Binding studies were performed using either a mixture of human plasma IgG isoforms (the Fc protein) or the individual human plasma IgG isoforms: IgG1, IgG2, IgG3, or IgG4.
(§2) Measurements were performed in 384-well microplates with 2 nM fluorescein-labeled peptide and a varied concentration of the IgG isoform target in a volume of 10 μl using a Tecan Polarion fluorescence polarization plate reader. The Fc binding buffer was 50 mM Tris-HCl, 200 mM NaCl, pH 8.0, 0.01% Tween 20. The IgG binding buffer was PBS with 0.01% Tween 20. The binding mixtures were equilibrated for 10 minutes in the microplate at 30° C. prior to performing the measurements.
(Polarisation of emitted light reports the rotation of a fluorescent probe.)

Experiment [2] has as its target T2, human IgG1 (human, UniProt P01857-1 1-330 = IgG part).
T2 construct: Calbiochem; human plasma IgG1 in anisotropy studies, myeloma-derived (cat. 400120) in batch/column studies; also called hIgG1
As to the kind of experiment: fluorescence anisotropy; pH 5.7, 0.01 M Tris-acetate. The method, then: (§3) All measurements were performed in 384 well microplates with 20 nM fluorescein-labeled peptide and various concentrations of the IgG isoform in a volume of between 10 and 20 μl using a Tecan Polarion fluorescence polarization plate reader. All binding buffers included 0.01% (v/v) Tween 20 to prevent peptide adsorption to the microplate. The binding mixture was equilibrated for 10 minutes in the microplate at 30° C. prior to performing the measurement.

Experiment [3] deals with T1, human IgG3. The description is as above. On the procedure: as §3
Experiment [4] addresses T3, human IgG4 (human, UniProt P01861-1 1-327 = IgG part).
T3 construct: Calbiochem; plasma IgG4 in anisotropy studies, myeloma-derived (cat. 400126) in batch/column studies; also called hIgG4
As to the kind of experiment: fluorescence anisotropy; pH 7.4, 0.01 M Tris-HCl. On the procedure:
as §3

Experiment [5] addresses T2, human IgG1. As to the kind of experiment: fluorescence anisotropy; pH 7.4, 0.01 M Tris-HCl. On the procedure: as §3
The target of experiment [6] is T4, human IgG2 (human, UniProt P01859-1 1-326 = IgG part).
T4 construct: Calbiochem; plasma IgG2 in anisotropy studies, myeloma-derived (cat. 400122) in batch/column studies; also called hIgG2
As to the kind of experiment: fluorescence anisotropy; pH 7.4, 0.01 M Tris-HCl. On the procedure: as §3

For experiment [7], the target named is T1, human IgG3. As to the kind of experiment: fluorescence anisotropy; pH 7.4, 0.01 M Tris-HCl. On the procedure:
as §3

Experiment [8] has as its target T2, human IgG1. As to the kind of experiment: fluorescence anisotropy; pH 7.4 PBS (second value, unlabelled row). The method, then:
as §3

In experiment [9] the target is T4, human IgG2. The description is as above. On the procedure:
as §3

In experiment [10] the target is T2, human IgG1. As to the kind of experiment: fluorescence anisotropy; pH 7.4 PBS. On the procedure:
as §3

The target in experiment [11] is T4, human IgG2. As to the kind of experiment: fluorescence anisotropy; pH 7.4 PBS. The method, then:
as §3

Experiment [12] addresses T1, human IgG3. As to the kind of experiment: fluorescence anisotropy; pH 7.4 PBS. The method, then: as §3
The target of experiment [13] is T5, Human IgG Fc fragment isolated from plasma (human).
T5 construct: domain: Fc fragment; also called human Fc; Fc protein
As to the kind of experiment: fluorescence anisotropy; pH 8.0, 0.05 M Tris-HCl, 0.2 M NaCl. On the procedure: as §3

Experiment [14] has as its target T3, human IgG4. As to the kind of experiment: batch binding, immobilised ligand. The method, then:
(§4) IgG targets were diluted into 10 mM phosphate buffer containing 150 mM NaCl and 0.01% Tween 20, pH 7.2 (PBST) or 50 mM Tris buffer containing, 150 mM NaCl and 0.01% Tween-20, pH 7.5 (TBST). Batch (static) binding and elution studies were conducted in a 96-well assay filterplate (Millipore MultiScreen-HV, with 0.45 μm Durapore membrane, product no. MAHVN4510). The target was allowed to incubate with the resin for 1-1.5 hours with shaking at room temperature. Unbound target was collected by centrifugation of samples from the assay plate directly into a low-UV absorbing 96-well collection plate (Costar, product no. 3635 or Greiner, product no. 655801). The unbound target was then quantitated by reading the absorbance at 280 nm (normalized to 1 cm pathlength, 1.4 mg/ml A280 extinction coefficient) of the collection plate on a microplate spectrophotometer (Molecular Devices Corp., SPECTRAmax PLUS) against a buffer blank.
(§5) The percentage bound target was determined by subtracting the mass determined as unbound from the corresponding condition's control values (control non-filtered added directly to the collection plate and/or the negative control). The assay plate was washed (3×) with 200 μl of binding buffer by vacuum filtration followed by addition of 100 μl of various elution conditions (e.g.: 0.1 M sodium bicarbonate buffer, pH 8.5 and/or 0.1 M sodium citrate buffer, pH 4.0). After a 30-60 minute incubation with shaking at room temperature, the eluted target was collected by centrifugation of the assay plate into another collection plate and quantitated in a similar manner. Percent elution of total load was then determined to characterize elution recovery efficiency under various conditions.

In experiment [15] the target is T2, human IgG1. As to the kind of experiment: batch binding, immobilised ligand. The method, then:
as §4, §5

Experiment [16] addresses T4, human IgG2. As to the kind of experiment: batch binding, immobilised ligand. The method, then: as §4, §5
Experiment [17] has as its target T1, human IgG3. As to the kind of experiment: batch binding, immobilised ligand. The method, then: as §4, §5
Experiment [18] concerns the target T5, Human IgG Fc fragment isolated from …. As to the kind of experiment: fluorescence anisotropy; 50 mM Tris-HCl, 200 mM NaCl, pH 8.0. On the procedure: as §1, §2
The target in experiment [19] is T3, human IgG4. As to the kind of experiment: fluorescence anisotropy; PBS. On the procedure: as §1, §2
Experiment [20] addresses T2, human IgG1. As to the kind of experiment: fluorescence anisotropy; PBS. On the procedure: as §1, §2
Experiment [21] deals with T4, human IgG2. As to the kind of experiment: fluorescence anisotropy; PBS. On the procedure: as §1, §2
Experiment [22] has as its target T2, human IgG1. As to the kind of experiment: fluorescence anisotropy; pH 9.3, 0.2 M NaCl. On the procedure: as §3
Experiment [23] addresses T2, human IgG1. As to the kind of experiment: fluorescence anisotropy; pH 9.3, 0.01 M sodium bicarbonate.
In experiment [24] the target is T4, human IgG2. Described as above.
Experiment [25] has as its target T2, human IgG1. As to the kind of experiment: anisotropy; pH 4.0 - salt.
Experiment [26] deals with T4, human IgG2. As to the kind of experiment: anisotropy; pH 4.0 - salt.
Experiment [27] deals with T2, human IgG1. As to the kind of experiment: anisotropy; pH 4.0 + salt.
Experiment [28] has as its target T4, human IgG2. As to the kind of experiment: anisotropy; pH 4.0 + salt.
The target of experiment [29] is T2, human IgG1. As to the kind of experiment: anisotropy; pH 7.5 - salt.
The target in experiment [30] is T4, human IgG2. As to the kind of experiment: anisotropy; pH 7.5 - salt.

fluorescein = fluorescein label attached at the ε-amino group of the C-terminal lysine

T1 sequence (P01860 other isoform, or with tags, fused parts or gaps): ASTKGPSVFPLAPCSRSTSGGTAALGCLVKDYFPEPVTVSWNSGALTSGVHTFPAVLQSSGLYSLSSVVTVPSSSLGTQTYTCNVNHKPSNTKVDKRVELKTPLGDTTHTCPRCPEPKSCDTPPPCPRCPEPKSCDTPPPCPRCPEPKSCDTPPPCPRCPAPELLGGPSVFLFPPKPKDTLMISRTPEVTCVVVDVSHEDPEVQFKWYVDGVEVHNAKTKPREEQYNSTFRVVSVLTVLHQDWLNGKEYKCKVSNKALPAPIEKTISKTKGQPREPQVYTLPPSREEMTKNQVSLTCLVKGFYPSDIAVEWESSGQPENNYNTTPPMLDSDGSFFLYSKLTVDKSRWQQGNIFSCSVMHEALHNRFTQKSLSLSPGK
T3 sequence (P01861 other isoform, or with tags, fused parts or gaps): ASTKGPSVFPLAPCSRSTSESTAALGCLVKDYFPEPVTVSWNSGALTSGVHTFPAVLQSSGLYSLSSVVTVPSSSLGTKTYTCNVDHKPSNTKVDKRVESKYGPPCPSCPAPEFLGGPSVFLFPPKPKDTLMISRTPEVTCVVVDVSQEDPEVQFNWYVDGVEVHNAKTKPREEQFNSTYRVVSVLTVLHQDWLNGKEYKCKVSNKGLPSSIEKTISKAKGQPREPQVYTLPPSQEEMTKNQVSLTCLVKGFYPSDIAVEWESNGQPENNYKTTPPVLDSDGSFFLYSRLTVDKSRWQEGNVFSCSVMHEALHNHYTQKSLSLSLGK
T2 sequence (P01857 other isoform, or with tags, fused parts or gaps): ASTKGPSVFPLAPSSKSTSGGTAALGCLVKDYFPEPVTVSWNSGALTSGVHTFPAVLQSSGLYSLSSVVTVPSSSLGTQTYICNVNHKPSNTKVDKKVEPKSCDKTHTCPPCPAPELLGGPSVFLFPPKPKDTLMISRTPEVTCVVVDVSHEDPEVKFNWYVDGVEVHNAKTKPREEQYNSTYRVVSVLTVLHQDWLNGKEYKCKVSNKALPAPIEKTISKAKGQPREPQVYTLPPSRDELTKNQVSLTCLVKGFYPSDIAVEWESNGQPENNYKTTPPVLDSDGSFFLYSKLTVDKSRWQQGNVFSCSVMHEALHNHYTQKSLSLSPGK
T4 sequence (P01859 other isoform, or with tags, fused parts or gaps): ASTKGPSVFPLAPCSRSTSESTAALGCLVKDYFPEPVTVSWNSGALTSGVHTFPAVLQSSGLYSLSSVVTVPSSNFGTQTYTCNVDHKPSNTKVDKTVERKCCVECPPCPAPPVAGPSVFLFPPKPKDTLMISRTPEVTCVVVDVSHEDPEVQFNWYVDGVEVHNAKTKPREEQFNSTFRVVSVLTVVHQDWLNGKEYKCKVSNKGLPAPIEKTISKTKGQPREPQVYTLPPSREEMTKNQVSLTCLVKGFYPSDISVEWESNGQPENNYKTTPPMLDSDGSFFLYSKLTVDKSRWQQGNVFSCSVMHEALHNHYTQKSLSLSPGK

B1: DX300 (peptide)
peptide: Ac-AGKYWCSFWGLQCKTGTPGPEGGGK(fluorescein)-NH2
modifications: not fully specified (bridges); printed as Ac-AGKYWCSFWGLQCKTGTPGPEGGGK-NH2; cysteine pairing not given here
notes: also called fluoresceinated DX250
In [1], B1 had a dissociation constant Kd of 4100 nM.

B2: DX252 (peptide)
peptide: Ac-GDDDHCYWFREWFNSECPHGEPGPEGGGK-NH2
modifications: not fully specified (bridges); printed as Ac-GDDDHCYWFREWFNSECPHGEPGPEGGGK-NH2; cysteine pairing not given here; also: fluorescein-labelled form in anisotropy assays, place not given here
notes: Fluorescein-labelled in anisotropy assays; immobilised in batch/column assays
With B2, the dissociation constant (Kd) stood at 100 nM in experiment [2]; 60 nM in experiment [3]; 3200 nM in experiment [4]; 2100 nM in experiment [5]; 3400 nM in experiment [6]; 2300 nM in [7]. The Kd in experiment [8] turned out to be 2900 nM; in experiment [9], 3000 nM; in experiment [10], 1900 nM; in [11], 3600 nM; in experiment [12], 2700 nM; in [13] it was 5100 nM. For the same molecule, the “bdg % (of Total Load)” value in experiment [14] was 14%; in experiment [15] it was 37%; in [16] it was 37%; in experiment [17], 44%.

B3: DX301 (peptide)
peptide: Ac-GDRRACSRDWSGALVWCAGHEPGPEGGGK(fluorescein)-NH2
modifications: not fully specified (bridges); printed as Ac-GDRRACSRDWSGALVWCAGHEPGPEGGGK-NH2; cysteine pairing not given here
notes: also called fluoresceinated DX253
B3: the equilibrium dissociation constant (Kd) in [18] worked out at 6800 nM; in experiment [19], 9700 nM; in experiment [20], 3600 nM; in experiment [21], 2300 nM.

B4: DX254 (peptide)
peptide: Ac-AGYYWCNYWGLCPDQGTPGPEGGGK-NH2
modifications: not fully specified (bridges); printed as Ac-AGYYWCNYWGLCPDQGTPGPEGGGK-NH2; cysteine pairing not given here; also: fluorescein-labelled form in anisotropy assays, place not given here
notes: Fluorescein-labelled in anisotropy assays; immobilised in batch assays
Take B4: the dissociation constant (Kd) in [2] came to 90 nM; in [3], 300 nM; in [22] it was 600 nM; in [4], 2900 nM; in experiment [6], 2000 nM; in experiment [8], 400 nM. Moreover, the Kd amounted to 140 nM in [10]; 1100 nM in experiment [11]; 3000 nM in experiment [12]; 1600 nM in experiment [13]; 400 nM in experiment [23]; 2000 nM in experiment [24].

B5: DX404 (peptide)
peptide: Ac-AGTYWCTFWELPCDPAPGPEGGGK-NH2
modifications: cysteine pairing not given here
notes: immobilised in batch/column assays
Take B5: the Kd in [25] came to 1500 nM; in [26], 1000 nM; in experiment [27], 2000 nM; in [28] it was 2000 nM; in experiment [29], 8800 nM; in experiment [30] it was 8600 nM.

As usually defined, the Kd is the equilibrium constant for the complex coming apart.
